Biological target: full-length, membrane-anchored A/Aichi/02/1968(H3N2)(X-31) HA (Influenza A virus …, UniProt P03437)
Test: flow cytometry on cells

| Binder | binding result |
| --- | --- |
| HC19 recombinant IgG (antibody, V domains shown) VH: QVQLKESGPGLVAPSQSLSITCTVSGFLLISNGVHWVRQPPGKGLEWLGVIWAGGNTNYNSALMSRVSISKDNSKSQVFLKMKSLQTDDTAMYYCARDFYDYDVFYYAMDYWGQGTSVTVSS VL: QAVVTQESALTTSPGETVTLTCRSSTGAVTTSNYANWVQEKPDHLFTGLIGGTNNRAPGVPARFSGSLIGDKAALTITGAQTEDEAIYFCALWYSNHWVFGGGTKLTVL | binds |
| S8V1–157 recombinant human IgG1 (antibody, V domains shown) VH: EVQLVQSGAEVKKPGASVKVSCKVSGYRLTALSMHWVRQAPGKGLEWMGGFDPEEDETIYAQNFQGRVTLTEDTSTDTVYMELSSLRSEDTGVYYCATLMGANPFDYWGQGTLIIVSG VL: not shown | binds |
| S5V2–29 recombinant IgG (antibody, V domains shown) VH: QVQLQESGPGLVKPSETLSLTCTVSGGSVSSNIYYWSWIRQTPGKGLEWLGYFYHSGSSNYNPSLKSRVTISGDMSKNQFSLKLKSVTAADTAIYYCARGGVENLMLVAVIQEMWYFDLWGRGTLVTVSG VL: DIQMTQTPSSLSASVGDRVTITCRASQSIGASLNWYQQKPGEAPKFLIYAASNLQSGVPSRFSGSGSGTDFTLTISSLQPEDFATYYCQQQGTFGQGTKLEIK | binds |
